Results taken from patent US20220348674A1 (APOLLOMICS, published 2022).
Positions count from the first letter of the chain named.

B1: 192 rabbit-human chimeric anti-CD40 antibody (antibody, V domains shown)
VH: QSVEESGGRLVTPGTPLTLTCTVSGFSLSSYAMNWVRQAPGKGLEYTGMIATGGKTFYAGWAEGRFTISKTSTTVDLHIASLTTEDTATYYCARGYVGDIYFGFWGPGTLVTVSS
VL: AVLTQTPSPVSAGVGGTVTISCQSSKSVYYNTHLSWFQQKPGQPPKLLIYRASTLASGVPSRFKGSGSGTQFTLTISDVQCDDAATYYCAGGYANDVDNGFGGGTEVVVK
notes: tested as cell culture supernatant
B2: 195 rabbit-human chimeric anti-CD40 antibody (antibody, V domains shown)
VH: B1 VH with T47I
VL: B1 VL with S35P
notes: as for B1
B3: 6G8 rabbit-human chimeric anti-CD40 antibody (antibody, V domains shown)
VH: QSVEESGGRLVTPGTPLTLTCTASGFSLSTYYMTWVRQAPGKGLEAIGYINTGGSTYYASRAKGRFTISKTSTTVDLKMTSPTTEDTATYFCARADASEHNYNGLNIWGPGTLVTVSS
VL: DIVMTQTPASVSEPVGGTVTIKCQASESISSNLAWYQQKPGQPPKFLIYRASTLASGVPSRFKGSGFGTQFTLTISDLECADAATYYCQSNYGSISSSYGNAFGGGTEVVVK
notes: as for B1
B4: 8C6 rabbit-human chimeric anti-CD40 antibody (antibody, V domains shown)
VH: QSVEESGGRLVTPGTPLTLTCTASGFTITSYYIIWVRQAPGEGLEYIGIIDTGGSADYASWAKGRFTISRTSTTVDLKMTSLTTEDTATYFCARADVGSVGSIWGPGTLVTVSS
VL: DVAMTQTPSSVSAAVGGTVTIECQASQNIYTNLAWYQQKPGQRPKLLIYYASTLASGVPSRFSGSGSGTEFSLTISDLECADAATYYCQCTYIKWRHVCGFGGGTEVVVK
notes: as for B1
B5: 6C2 rabbit-human chimeric anti-CD40 antibody (antibody, V domains shown)
VH: QSVEESGGRLVTPGTPLTLTCTASGFSLSTYYMIWVRQAPGKGLDYIGIISSNGNAYYATWAKGRFTISKTSTTVDLKMTSPTTEDTATYFCARAASIANSYYFNVWGPGTLVTVSS
VL: AVLTQTPSPVSAAVGGTVSISCQSSQSVRDNNWLSWFQQKPGHPPKLLIYGASNLESGVPSRFSGSGSGTEFTLTISDVQCDDAATYYCQGGFSTYSDNSFGGGTEVVVK
notes: as for B1
B6: 2C10 rabbit-human chimeric anti-CD40 antibody (antibody, V domains shown)
VH: QSLEESGGRLVTPGTPLTLTCTASGFTMNRYRMSWVRQAPGKGLEWIGTINNDAGASYASWVNGRFTISKTSSTTVDLKITGPTTEDTATYFCARAGDNIYVDLYNLWGPGTLVTVSS
VL: DVVMTQTPASVSGAVGGTVTIKCQASENIFSYLAWYQQKPGQPPKLLFYGASNLASGVPSRFSGSRSGTEFTLTISDLECADAATYYCQFTNYGSSDIRSPFGGGTEVVVK
notes: as for B1
B7: 196 rabbit-human chimeric anti-CD40 antibody (antibody, V domains shown)
VH: QSVEESGGRLVTPGTPLTLTCTVSGFSLSAYAIHWVRQAPGKGLEYIGIIDAGGNIVYATWALGRFTISKTSTTVDLKITSPTTEDTATYFCGRGLSSYSNSAMDLWGPGTLVTVSS
VL: DVVMTQTPASVSEPVGGTVTMKCQASQNIYTYLAWYQQKPGRPPKLLIYQASTLASGVSSRFSGSGSGTEFTLTISDLECADAATYYCQSTAGNAYNAFGGGTEVVVK
notes: as for B1
B8: 1D3 rabbit-human chimeric anti-CD40 antibody (antibody, V domains shown)
VH: QSLEESGGRLVTPGTPLTLTCTASGFSLSNYHMCWVRQAPGKGLEWIGYNSYGGSAYYASWAKGRFTISKTSTTVDLKITRPTTEDTATYFCARAYLDYNGDMGFALWGPGTLVTVSS
VL: EVVMTQTPSSVSAAVGGTVTFKCQASQSISSYLSWYQQKPGQPPKLLIYRASTLESGVPSRFKGSGSGTQFTLTISDLECADAATYYCQTNYYDSGNTYGTFGGGTEVVVK
notes: as for B1
B9: 197 rabbit-human chimeric anti-CD40 antibody (antibody, V domains shown)
VH: QEQLKESGGGLVTPGTALTLTCTASGSDISSYAMNWVRQAPGKGLEYIGVITSSGTIYYANWATGRFTISKASSTTVDLKTTRLTTEDTATYFCARGITGAVTTGLSLWGPGTLVTVSS
VL: DVVMTQTPPSVSEPVGGTVTIKCQASQNIYNNLAWYQQTPGQPPKLLGYAASNLASGVSSRFSGSGYGTEFTLTISDLECADAATYYCLGGYYGNNVGNTFGGGTEVVVK
notes: as for B1
B10: 194 rabbit-human chimeric anti-CD40 antibody (antibody, V domains shown)
VH: QSVEESGGRLVTPGTPLTLTCTVSGFSLSSYAMSWVRQAPGKGLEYIGVMNTGGSAHYATWAKGRFTISKTSTTVDLKITSPTTADTATYFCARGYIGSPNLWGPGTLVTVSS
VL: AVLTQTPSPVSAAVGGTVSISCQSSKSVYYNNYLSWFQQKPGQPPKQLIYLASTLASGVPSRFKGSGSGTEFTLTISDVQCADAATYYCAGGYTDSDDAFGGGTEVVVK
notes: as for B1
B11: 7H11 rabbit-human chimeric anti-CD40 antibody (antibody, V domains shown)
VH: QSVEESGGRLVTPGTPLTLTCTVSGIDFSKYWMAWVRQAPGEGLEYIGILSTTGSTYYASWAKGRFTISKTSTTVDLKITSLTTEDTATYFCARGNYIGNGYTWDIWGPGTLVTVSS
VL: DPVLTQTPSSASEPVGGTVTIKCQASQSIGSYLAWYQQKPGQPPKLLIYSPSTLASGVSSRFKGSRSGTEFTLTISDLECADAATYYCQSTAVGITFGGGTEVVVK
notes: as for B1
B12: 198 rabbit-human chimeric anti-CD40 antibody (antibody, V domains shown)
VH: QSVKESEGGLFKPTDTLTLTCTVSGFSLGSYTMAWVRQAPGNGLEYIGTIDSSGSADYASWAQSRSTITRNTNLNTVTLKMTSLTAADTATYFCARPTNYEYTWALNIWGPGTLVTVSS
VL: DVVMTQTPASVSEPVGGTVTIKCQASQTIYSYLAWYQQKPGQPPKLLIYGASKLASGVPSRFSGSRSGTEFTLTISDLECADAATYYCQCTGYDSAYVYNDFGGGTEVVVK
notes: as for B1
B13: 6E1 rabbit-human chimeric anti-CD40 antibody (antibody, V domains shown)
VH: QSVEESGGRLVTPGTPLTLTCTVSGFSLSSYAMTWVRQAPGKGLEWLGIIDTIGSTYYASWAKGRFTISKTSTTVDLKITSPTTEDTATYFCVRDYIGSTSGKKLWGRGTLVTVSS
VL: AVLTQTPSSVEAAVGGTVSISCQSSKSVYYKNWLAWYQQKPGQPPKLLIYGASTLASGVPSRFKGSGSGAQFTLTISDVQCDDAATYYCAGGYSSDSDTGFGGGTEVVVK
notes: as for B1
B14: 3B12 rabbit-human chimeric anti-CD40 antibody (antibody, V domains shown)
VH: QSLEESGGRLVTPGTPLTLTCTVSGIDLSSYAMGWVRQAPGKGLEYIGVIASNSGISYYATWAEGRFTISKASTTVDLKITSPTTEDTATYFCVRGYIGDGALWGPGTLVTVSS
VL: B13 VL with E11S, S19T, S21N, S27T, K31N, G51R, A70T, A85T, Y93F, G100T
notes: as for B1
B15: 6H9 rabbit-human chimeric anti-CD40 antibody (antibody, V domains shown)
VH: B14 VH
VL: B13 VL with E11S, S19T, S21N, S27T, K31N, G51R, A70T, A85T, Y93F, G100T
notes: as for B1
B16: 2B8 rabbit-human chimeric anti-CD40 antibody (antibody, V domains shown)
VH: B14 VH
VL: B13 VL with E11S, S19N, S21G, K31N, G51R, A70T, D82A, A85T, G100T
notes: as for B1
B17: 7A6 rabbit-human chimeric anti-CD40 antibody (antibody, V domains shown)
VH: QSVEESGGRLVTPGTPLTLACTVSGIDLSTWTMSWVRQAPGKGLEWIGIINSDSNTYYASWAKGRFTISKASTTVDLKMTSLTTEDTATYFCARGVGGYSSGPDYLDIWGPGTLVTVSS
VL: DIVMTQTPASVEAAVGGTVTIKCQASQSIYRSLAWYQQKPGQPPKLLMYHASDLASGVPSRFKGSGSGTEYTLTISDLECADAATYYCQSYYYSGINTYGNAFGGGTEVVVK
notes: as for B1
B18: 5F9 rabbit-human chimeric anti-CD40 antibody (antibody, V domains shown)
VH: QSVEESGGRLVTPGTPLTLTCTASGFSLIGYVMGWFRQAPGKGLEYIGWISFGGDPYYASWVKGRFTISKTSTTVDLKMTSLTTEDTATYFCARSTYGDIWGPGTLVTVSS
VL: DIVMTQTPASVEAAVGGTVTIKCQASQSISSRLAWYQLKPGQPPKLLIYSASTLASGVPSRFKGSGSGTEFTLTISDLECADAATYYCQNHGYATSESYTNTFGGGTEVVVK
notes: tested as cell culture supernatant in the ELISA
B19: 2E11 rabbit-human chimeric anti-CD40 antibody (antibody, V domains shown)
VH: QSLEESGGRLVTPGTPLTLTCTVSGIDLSRYAMGWVRQAPGKGLEFIGIITSNSGDTYYATWAKGRFTISKTSTTVDLKITSPTTEDTATYFCVRGYIGAPNLWGPGTLVTVSS
VL: AVLTQTPSPVSAAVGGTVSISCQSSKTVYYNNYLSWFQQKPGQPPKELIYYASTLSSGVPSRFKGSGSGTQFTLTISDVQCDDAATYYCAGGYNSDSDNTFGGGTEVVVK
notes: as for B18
B20: 7D2 rabbit-human chimeric anti-CD40 antibody (antibody, V domains shown)
VH: QSVEESGGRLVTPGTPLTLTCTVSGFSLNNYYMGWVRQAPGKGLEYIGWITSGRIAAYANWAKGRFTISKTSTTVDLKITSPTIGDTATHFCATTTTSDAYFFPRLGLWGQGTLVTVSS
VL: AVLTQTPSPVSAAVEGTVTINCQSSQSVDNNRLSWFQQKPGQPPKLLIYDASTLASGVPPRFKGSGSGTQFTLTISDVQCDDAATYYCAGGYSFPSENAFGGGTEVVVK
notes: as for B1
B21: 5D10 rabbit-human chimeric anti-CD40 antibody (antibody, V domains shown)
VH: QSVEESGGRLVTPGTPLTLTCTVSGFSFYDHTMIWVRQAPGKGLEYIGFINIGGRAYYASWAKGRFTISRTSTTVDLEMTSLTTEDTATYFCARGDTHGYSYPEIWGPGTLVTVSS
VL: DIVMTQTPASVEAGVGGTVTIKCQASQTIYSYLSWYQQKPGQPPKLLIYRASTLASGVPSRFRGSGSGTEFTLTISDLECADAAAYYCQNYYDSTSSNAFGKGTEVVVK
notes: as for B1
B22: 7C11 rabbit-human chimeric anti-CD40 antibody (antibody, V domains shown)
VH: QSLEESGGRLVTPGGSLTLTCTVSGIDLSTNGMGWVRQGPGKGLEWIGTIRVTAGTDYANWAKGRFTISKTSSTTVDLKMTSLTTEDTATYFCARGHANNDAYVYFNLWGQGTLVTVSS
VL: AFELTQTPASVEAGVGGTVTIKCQASQSIDRYLAWYQQKSGQPPKLLISYTSKLASGVPSRFKGSGSGTEFTLTISDLECADAATYYCQSYFTSDDANSFGGGTEVVVK
notes: as for B1
B23: 8C10 rabbit-human chimeric anti-CD40 antibody (antibody, V domains shown)
VH: B22 VH with E4A, N31D, A54G, Y58F, N60T, S69A
VL: AFELTQTPASVEAGVGGTVTIKCQASQSIDRYLAWYQQKPGQPPKLLMAAAANLASGVPSRFKGSRSGTEFTLTISDLECADGATYYCQSYFTSDDGNTFGGGTEVVVK
notes: as for B1
B24: 7G6 rabbit-human chimeric anti-CD40 antibody (antibody, V domains shown)
VH: B22 VH with A54G, N60T, L83P
VL: B22 VL with S40P, K53T, A55T, S99T
notes: as for B1

Target: T1, purified recombinant human CD40 protein (human, UniProt P25942 21-193)
T1 construct: also called recombinant CD40
Experiment: ELISA on coated recombinant human CD40; chimeric antibody supernatant
Method: ELISA plate was coated with purified recombinant CD40 protein in coating buffer at lug/ml overnight. After washed for 3 times, the plate was blocked with 1% BSA, and then cell culture supernatants containing rabbit-human chimeric CD40 antibodies were added to the plate. For detection of the antibody binding to CD40 protein, goat anti-human Fc polyclonal antibody conjugated to alkaline phosphatase was used.

T1 sequence (P25942 21-193 limits assumed): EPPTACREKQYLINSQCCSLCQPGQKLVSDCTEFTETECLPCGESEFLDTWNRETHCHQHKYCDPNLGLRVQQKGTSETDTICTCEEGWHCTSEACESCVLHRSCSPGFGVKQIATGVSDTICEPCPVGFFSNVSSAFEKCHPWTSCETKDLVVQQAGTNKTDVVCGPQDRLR

Row | OD405 | Binder
1 | 2 OD405 | B1
2 | 1.84 OD405 | B2
3 | 1.77 OD405 | B3
4 | 1.97 OD405 | B4
5 | 1.96 OD405 | B5
6 | 2.14 OD405 | B6
7 | 1.92 OD405 | B7
8 | 1.51 OD405 | B8
9 | 2.01 OD405 | B9
10 | 1.69 OD405 | B10
11 | 1.46 OD405 | B11
12 | 1.8 OD405 | B12
13 | 1.82 OD405 | B13
14 | 1.57 OD405 | B14
15 | 1.97 OD405 | B15
16 | 1.64 OD405 | B16
17 | 1.99 OD405 | B17
18 | 1.83 OD405 | B18
19 | 1.79 OD405 | B19
20 | 1.82 OD405 | B20
21 | 0.98 OD405 | B21
22 | 1.8 OD405 | B22
23 | 2.09 OD405 | B23
24 | 1.82 OD405 | B24
